The source of these data is US7138248B2, “Method of inhibiting inward rectifier, G-protein activated, mammalian, potassium channels and uses thereof” (California Institute of Technology, priority 1993, dated 2006).

“Also recorded” adds a separate entry of the source.

The term EC50 denotes the concentration that produces a half-maximal response.

Assay [1] deals with T1, atrial inward rectifier K+ (KG) channel (Rattus norvegicus, UniProt P48548+P63251).
T1 construct: is expressed in oocytes injected with atrial RNA; expressed in transfected cells; host or cells: Xenopus laevis oocytes injected with rat atrial total or poly(A) RNA plus 5HT1A receptor cRNA
T1 sequence (P63251 1-501): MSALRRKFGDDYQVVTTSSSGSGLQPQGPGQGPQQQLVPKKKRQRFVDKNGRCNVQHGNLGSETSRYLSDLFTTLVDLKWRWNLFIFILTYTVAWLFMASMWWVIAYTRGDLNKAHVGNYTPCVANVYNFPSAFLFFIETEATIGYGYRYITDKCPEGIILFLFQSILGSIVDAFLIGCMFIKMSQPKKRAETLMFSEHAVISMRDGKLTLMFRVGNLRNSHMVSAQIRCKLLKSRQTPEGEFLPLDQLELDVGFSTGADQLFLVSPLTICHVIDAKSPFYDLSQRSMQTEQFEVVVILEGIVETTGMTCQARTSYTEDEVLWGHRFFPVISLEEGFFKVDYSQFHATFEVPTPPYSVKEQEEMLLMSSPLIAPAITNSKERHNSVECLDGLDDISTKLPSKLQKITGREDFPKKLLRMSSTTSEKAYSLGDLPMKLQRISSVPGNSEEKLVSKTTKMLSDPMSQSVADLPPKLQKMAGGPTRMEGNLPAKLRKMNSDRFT
T1 sequence (P48548 1-419): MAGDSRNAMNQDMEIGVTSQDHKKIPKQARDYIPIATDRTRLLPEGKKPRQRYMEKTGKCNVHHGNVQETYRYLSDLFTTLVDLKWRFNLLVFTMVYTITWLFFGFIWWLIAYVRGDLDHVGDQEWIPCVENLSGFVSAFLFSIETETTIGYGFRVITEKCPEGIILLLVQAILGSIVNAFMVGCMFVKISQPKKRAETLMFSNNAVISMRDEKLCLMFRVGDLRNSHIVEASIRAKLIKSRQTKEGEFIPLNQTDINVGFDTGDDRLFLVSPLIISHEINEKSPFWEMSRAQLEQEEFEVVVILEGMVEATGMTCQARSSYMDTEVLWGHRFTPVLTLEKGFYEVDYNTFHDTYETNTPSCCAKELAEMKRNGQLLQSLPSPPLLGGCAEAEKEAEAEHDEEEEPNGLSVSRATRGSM
Briefly: Two-electrode voltage clamp of the transmitter-evoked inward current (I5HT) in oocytes injected with atrial RNA + 5HT1A-R RNA. In kind it is cell-based. For orientation: Two-electrode voltage clamp holds a large cell at a set potential and records current.
Procedure: Solutions containing intermediate concentrations of K^+ were made by substituting K^+ for Na^+. Solution exchange and drug application were done by superfusing the cell placed in a 0.5 ml chamber. […] Stimulation, data acquisition, and analysis were performed using pCLAMP software (Axon Instruments, Foster City, Calif.).

Assay [2] deals with Xenopus laevis oocytes. The experiment in a line: Membrane (resting) current of oocytes in normal ND96 solution, two-electrode voltage clamp. In kind it is cell-based. The protocol: Preparation of RNA and oocytes. Total RNA was extracted from atria and ventricles of 19–21 day old rats of both sexes using the procedure of Chomczinski and Sacchi (1987) Anal. Biochem. 162:156–159. Poly (A) RNA was separated on an oligo-dT cellulose column (type 3, Collaborative Biochemical Products). Ventricle poly(A) RNA was fractionated by centrifugation (18 h, 30,000 g, 4° C.) on a linear 5%–25% sucrose gradient. Xenopus laevis oocytes were prepared as previously described (Dascal & Lotan (1992) in Methods in Molecular Biology, v. 13: Protocols in Molecular Neurobiology, eds. Longstaff & Revest). and injected with either 50–120 ng/oocyte poly(A) RNA, 120–200 ng/oocyte total RNA, or 35 ng/oocyte fractionated poly(A) RNA. In most cases, 5HT1A-R RNA (5–20 ng/oocyte) was co-injected with atrial or ventricle RNA. Final volume of the injected RNA solution was 50 nl. The oocytes were incubated for 3–7 days in the NDE solution (ND96 (see below) containing 1.8 Mm CaCl2 and supplemented with 2.5 Mm Na-pyruvate and 50 μg/ml gentamicin). Occasionally, either 2.5–5% heat-inactivated horse serum or 0.5 mM theophylline were added to the NDE solution. […]

For assay [3], the system named is native oocytes.
Procedure: Electrophysiological recordings were performed using the two electrode voltage clamp method with the Dagan 8500 amplifier (Dagan Instruments, Minneapolis) as described (Dascal et al. (1986) Mol. Brain Res. 1:201–209). […]
Assay [4] relates to Kir3.1+2. Briefly: ACh-induced inward current (m2R activation) in oocytes coinjected with Kir3.1 and Kir3.2 cRNAs. The following applies: 1 μM ACh, 0.5 ng each cRNA per oocyte, mean±SEM, n=5. The format is cell-based, rat Kir3.1, mouse Kir3.2. From the text:
(§1) Plasmids and DNAS. To isolate Kir3.2 and Kir3.3 from mouse brain RNA, oligonucleotides were designed that anneal to the first assigned methionine codon and the assigned stop codon of mouse Kir3.2 and Kir3.3 (Lesage et al (1994) FEBS Lett. 353:37–42). Kir3.0-specific sequences were coupled to a 5′-end untranslated sequence from alfalfa mosaic virus (Jobling and Gehrke (1987) Nature 325:622–625) and a T7 RNA polymerase recognition site to confer an optimal translational initiation site and allow RNA synthesis […] (cRNA). At the 3′ end, a poly(A) tail was added to confer RNA stability. Total RNA from adult mouse brain (purchased from Clontech) was used as template for cDNA synthesis (Sambrook et al., supra.). PCR was conducted in a thermal cycler (Perkin-Elmer) by using Vent Polymerase (New England Biolabs), which minimizes misincorporations during the amplification step. Kir3.2 and Kir3.3 PCR-derived sequences were then inserted into the pNoTA vector (5 Prime→3 Primer, Inc.) for subsequent sequence analysis. […]
(§2) Electrophysiology. Whole-cell currents from oocytes were measured by using an Axoclamp 2A or Geneclamp 500 amplifier (Axon Instruments, Foster City, Calif.) in the two-electrode, voltage-clamp configuration. […]

Assay [5] has as its system Kir3.2. Briefly: ACh-induced inward current (m2R activation) in oocytes injected with Kir3.2 cRNA. In kind it is cell-based, mouse. The following applies: 1 μM ACh, 1 ng cRNA, n=7.
Source text: as §1, §2

Assay [6] relates to Kir3.1. The experiment in a line: ACh-induced inward current (m2R activation) in oocytes injected with Kir3.1 cRNA. The format is cell-based, rat. The following applies: 1 μM ACh, 1 ng cRNA, n=5.
Source text: as §1, §2

Assay [7] relates to constitutively active inward rectifier K+ channel(s) (IhK). The experiment in a line: Two-electrode voltage clamp of the high-K+-evoked inward current (IhK) in oocytes. In kind it is cell-based, Xenopus laevis. The protocol:
Preparation of RNA and oocytes. Total RNA was extracted from atria and ventricles of 19–21 day old rats of both sexes using the procedure of Chomczinski and Sacchi (1987) Anal. Biochem. 162:156–159. Poly (A) RNA was separated on an oligo-dT cellulose column (type 3, Collaborative Biochemical Products). Ventricle poly(A) RNA was fractionated by centrifugation (18 h, 30,000 g, 4° C.) on a linear 5%–25% sucrose gradient. Xenopus laevis oocytes were prepared as previously described (Dascal & Lotan (1992) in Methods in Molecular Biology, v. 13: Protocols in Molecular Neurobiology, eds. Longstaff & Revest). and injected with either 50–120 ng/oocyte poly(A) RNA, 120–200 ng/oocyte total RNA, or 35 ng/oocyte fractionated poly(A) RNA. In most cases, 5HT1A-R RNA (5–20 ng/oocyte) was co-injected with atrial or ventricle RNA. Final volume of the injected RNA solution was 50 nl. The oocytes were incubated for 3–7 days in the NDE solution (ND96 (see below) containing 1.8 Mm CaCl2 and supplemented with 2.5 Mm Na-pyruvate and 50 μg/ml gentamicin). Occasionally, either 2.5–5% heat-inactivated horse serum or 0.5 mM theophylline were added to the NDE solution. Incubation of oocytes in pertussis toxin (PTX; List Biochemicals) was done in NDE solution without the addition of pyruvate, serum or theophylline. cDNAs of 5HT1A receptor (Karschin et al. (1991) P.N.A.S. 88:5694–5698) and Gi2a (a gift from M. I. Simon, Caltech) in pBluescript were linearized, and RNA was synthesized in vitro as described (Dascal and Lotan, supra.).
Electrophysiological recordings were performed using the two electrode voltage clamp method with the Dagan 8500 amplifier (Dagan Instruments, Minneapolis) as described (Dascal et al. (1986) Mol. Brain Res. 1:201–209). The oocytes were usually kept in the ND96 solution: 96 mM NaCl/2 mM KC1/1 mM MgCl2/1 mM CaCl2/5 mM Hepes, pH=7.5. Most measurements were done in the high K^+ solution (hK): 96 mM KCl/2 mM NaCl/1 mM MgCl2/1 mM CaCl2/5 mM Hepes, pH=7.5. Solutions containing intermediate concentrations of K^+ were made by substituting K^+ for Na^+. Solution exchange and drug application were done by superfusing the cell placed in a 0.5 ml chamber. GDP-β-S (trilithium salt; Sigma) was injected by pressure (Dascal et al. supra.). Stimulation, data acquisition, and analysis were performed using pCLAMP software (Axon Instruments, Foster City, Calif.).

The target of assay [8] is Kir3.1 (Kir3.1/KGA), inward rectifier G-protein activated potassium channel polypeptide cloned from cardiac atrium (rat) (UniProt P63251). The experiment in a line: cell-based or functional assay.
Assay [9] concerns the target Kir3.2, isolated by PCR from mouse brain RNA (mouse) (UniProt P48542). The experiment in a line: cell-based or functional assay.
Assay [10] concerns the target serotonin 5HT1A receptor (5HT1A-R). The experiment in a line: cell-based or functional assay.
[11] abbreviates: 400–800 pmole/oocyte injected, 4 cells.
Setting [12] is: RNA-injected oocytes without Gi2α RNA, 500 ng/ml, 20–26 h.

Chain of Kir3.2, isolated by PCR from mouse brain RNA (mouse) (P48542 whole entry): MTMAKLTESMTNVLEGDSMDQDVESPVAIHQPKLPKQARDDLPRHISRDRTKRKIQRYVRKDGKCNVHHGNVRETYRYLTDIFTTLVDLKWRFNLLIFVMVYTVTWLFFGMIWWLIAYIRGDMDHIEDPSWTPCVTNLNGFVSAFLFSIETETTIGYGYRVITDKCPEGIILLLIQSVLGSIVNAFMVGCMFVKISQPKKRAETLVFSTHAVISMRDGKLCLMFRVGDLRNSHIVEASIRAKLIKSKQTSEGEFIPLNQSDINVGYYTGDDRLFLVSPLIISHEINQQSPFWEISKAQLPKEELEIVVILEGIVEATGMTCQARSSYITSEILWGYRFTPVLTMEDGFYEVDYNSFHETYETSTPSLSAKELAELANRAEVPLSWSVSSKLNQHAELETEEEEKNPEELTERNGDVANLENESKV

With `NCCc1c[nH]c2ccc(O)cc12` [5HT, serotonin], the EC50 in assay [1] was about 0.015 µM. Besides, the “inward current induced by the transmitter in hK solution” value in assay [1] (RNA-injected oocytes of one frog, n=6) is reported as 1102±84 nA. In [1] (hK solution, FIG. 1C), the “saturation of the I5HT dose-response curve” value was “about 100 nM”. Besides, in assay [1] (oocytes injected with Atrial + 5HT1A-R RNA, -80 mV, hK solution, 5HT 100 nM to 2 μM, mean±SEM (n)), the “I5HT, inward current evoked by 5HT” value is listed as 290 ± 43 (55) nA. In addition, in assay [2] (RNA-injected oocytes, 4 to 5 days after injection, 10 μM ACh or 1–2 μM 5HT), the “change in membrane current in ND96 bath solution” value is “did not cause any significant change”. Further, the “effect of 5HT on current” value in [3] was “no effect”.

With `CC(=O)OCC[N+](C)(C)C` [ACh, acetylcholine], the “inward currents induced by ACh (IK,ACh)” value in assay [4] is −6.4±0.8 μA; in [5] it was −698±98 nA; in assay [6], −365±45 nA.

`[Ba+2]` [Ba^2+]: the “block of I5HT” value in [1] (300 μM, hK solution, FIG. 3B) was “almost completely blocks; also recorded: almost completely abolished”. Besides, the IC50 in assay [1] (hK solution, -80 mV, FIG. 3D, read-out: IC50 (half-inhibition concentration) for block of I5HT) was about 15 µM; in assay [7] (hK solution, -80 mV, FIG. 3D, read-out: IC50 for IhK block) it was over 3000 µM. In assay [7] (300 μM, hK solution), the “block of IhK” value is given as “about 20%”. In addition, in assay [2] (5 μM-3 mM, native or RNA-injected oocytes, holding potential -80 mV), the “change in resting current or conductance in normal ND96” value is recorded as “did not cause any significant changes”.

On to `Nc1nc2c(ncn2[C@@H]2O[C@H](COP(=O)(O)OP(O)(O)=S)[C@@H](O)[C@H]2O)c(=O)[nH]1` [GDP-β-S], for which the “I5HT after injection, % of control” value in [1] (setting [11]) is on record as 4±1 % of control. Besides, the “IhK after injection, % of control” value in [7] (setting [11]) is recorded as 115±8 % of control.

In assay [8], G protein subunits Gβ1 and Gγ2 (Gβ1γ2) displayed an inward K+ current (IK) in high-K+ solution, Kir3.1 alone with Gβ1γ2 of -104 nA and an inward K+ current (IK), Kir3.1 alone (control of the Kir3.1+3 experiment) of -481 nA. In assay [9], the Gβγ-induced, inwardly rectifying currents in oocytes injected with Kir3.2 cRNA alone (1 ng per oocyte) is -5.1 µA and the inward K+ current (IK) in high-K+ solution, Kir3.2 alone with Gβ1γ2 is -305 nA.

With “Gi2α, PTX-sensitive α subunit of a G-protein”, in assay [10], the PTX inhibition of I5HT in oocytes injected with atrial RNA plus cRNAs encoding 5HT1A-R and Gi2α worked out at 50%.

With “Kir3.2, isolated by PCR from mouse brain RNA (from UniProt P48542 1-425)”, in assay [8], the fold increase of IK of Kir3.1+2 over Kir3.1 alone (with Gβ1γ2) was 40 fold, the fold increase of IK of Kir3.1+2 over Kir3.2 alone (with Gβ1γ2) came to 14 fold, the fold increase of the ACh-induced current of Kir3.1+2 over Kir3.1 alone worked out at 17 fold and the fold increase of the ACh-induced current of Kir3.1+2 over Kir3.2 alone was 9 fold. In assay [8], the fold increase of the major open-time component of Kir3.1+2 against Kir3.2 alone came out at 7 fold; the inward K+ current (IK) in high-K+ solution, Kir3.1+2 coexpressed with Gβ1γ2 was -4.3 µA; the inward currents induced by ACh (IK,ACh), Kir3.1+2 coexpressed with m2R, 1 µM ACh was -6.4 µA; the major component of single-channel open-time duration, Kir3.1+2 is 3.5 ms. In assay [8], this molecule had a time constant of the slower activation component at -80 mV, Kir3.1+2 coexpressed of 213 ms.

As for “Kir3.3, isolated by PCR from mouse brain RNA (from UniProt P48543 1-393)”, in assay [8], the fold increase of IK of Kir3.1+3 over Kir3.1 alone turned out to be 7 fold; the inward K+ current (IK), Kir3.1 and Kir3.3 coexpressed (Kir3.1+3) was -3.4 µA. This molecule gave a Gβγ-induced, inwardly rectifying currents in oocytes coinjected with Kir3.2 and Kir3.3 cRNAs (0.5 ng each per oocyte) in [9] of -129 nA.

For the molecule pertussis toxin [PTX], the “effect of treatment on I5HT” value in assay [1] (setting [12]) is given as “not affected”. Also, the “inhibition of I5HT” value in [1] (oocytes injected with atrial RNA plus cRNAs encoding 5HT1A-R and Gi2α, P<0.01) is given as “about 50%”. Moreover, the “effect of treatment on IhK” value in [7] (setting [12]) was “not affected”. For the same molecule, in assay [7] (oocytes injected with atrial RNA plus cRNAs encoding 5HT1A-R and Gi2α), the “effect on IhK” value is recorded as “unaffected”.
